Reference: the supplement of paper PMC7877785
± gives the uncertainty stated by the source.

Test: self-splicing fitness, log relative to wild type (ln ratio); higher = more splicing; Tetrahymena group I intron in knt gene, E. coli kanamycin selection, DiMSum; sequences stand for … in CUCUCU…GGAGGGAAAAGUUAUCAGGCAUGCACCUGGUAGCUAGUCUUUAAACCAAUAGAUUGCAUCGGUUUAAAAGGCAAGACCGUCAAAUUGCGGGAAAGGGGUCAACAGCCGUUCAGUACCAAGUCUCAGGGGAAACUUUGAGAUGGCCUUGCAAAGGGUAUGGUAAUAAGCUGACGGACAUGGUCCUAACCACGCAGCCAAGUCCUAAGUCAACAGAUCUUCUGUUGAUAUGGAUGCAGUUCACAGACUAAAUGUCGGUCGGGGAAGAUGUAUUCUUCUCAUAAGAUAUAGUCGGACCUCUCCUUAAUGGGAGCUAGCGGAUGAAGUGAUGCAACACUGGAGCCGCUGGGAACUAAUUUGUAUGCGAAAGUAUAUUGAUUAGUUUUGGAGUACUCGUGGUCG
Outline: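 Fitness was computed with DiMSum as the error-weighted combination of replicate fold changes, kanamycin versus none, each normalised to wild type. The library randomised all eight intron nucleotides of the P1ex region, with the intron placed in the knt kanamycin-resistance gene on pET-22b(+) in E. coli BL21(DE3). Six replicate transformations were grown overnight at 37°C or 30°C on LB agar with or without 25 μg/mL kanamycin, plus 100 μg/mL carbenicillin, 50 μM IPTG and 0.2% rhamnose. Pooled colonies were amplicon-sequenced on an Illumina HiSeq 2500.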

With CCUCAGCAAUAUUACGUCGC the “self-splicing fitness (ln)” value (37 °C) was -3.77 ± 0.36.

In the case of GAAGAGCAAUAUUACGCACG, the “self-splicing fitness (ln)” value (30 °C) is reported as -2.22 ± 0.1 and the “self-splicing fitness (ln)” value (37 °C) is reported as -1.71 ± 0.16.

For GCGGAGCAAUAUUACGUUUC, the “self-splicing fitness (ln)” value (30 °C) was -2.57 ± 0.39.

In the case of ACGCAGCAAUAUUACGGGCC, the “self-splicing fitness (ln)” value (30 °C) is reported as -1.28 ± 0.091 and the “self-splicing fitness (ln)” value (37 °C) is reported as -0.893 ± 0.12.

With CUUUAGCAAUAUUACGGUCU the “self-splicing fitness (ln)” value (30 °C) was -3.25 ± 0.2 and the “self-splicing fitness (ln)” value (37 °C) was -3.94 ± 0.36.

With GCGUAGCAAUAUUACGGUUG the “self-splicing fitness (ln)” value (30 °C) was -2.96 ± 0.13 and the “self-splicing fitness (ln)” value (37 °C) was -1.75 ± 0.14.

With GGCAAGCAAUAUUACGUUCG the “self-splicing fitness (ln)” value (30 °C) was -0.0493 ± 0.065 and the “self-splicing fitness (ln)” value (37 °C) was -0.196 ± 0.08.

In the case of AGUCAGCAAUAUUACGAACU, the “self-splicing fitness (ln)” value (30 °C) is reported as -0.853 ± 0.089 and the “self-splicing fitness (ln)” value (37 °C) is reported as 0.15 ± 0.11.

For CCCGAGCAAUAUUACGUUGU, the “self-splicing fitness (ln)” value (30 °C) was -3.46 ± 0.14 and the “self-splicing fitness (ln)” value (37 °C) was -2.73 ± 0.19.

With AGCUAGCAAUAUUACGUACG the “self-splicing fitness (ln)” value (30 °C) was -1.85 ± 0.07 and the “self-splicing fitness (ln)” value (37 °C) was -1.21 ± 0.081.

For GCUGAGCAAUAUUACGUUGU, the “self-splicing fitness (ln)” value (30 °C) was -3.56 ± 0.14 and the “self-splicing fitness (ln)” value (37 °C) was -2.83 ± 0.17.

In the case of UUUUAGCAAUAUUACGUGAC, the “self-splicing fitness (ln)” value (30 °C) is reported as -3.41 ± 0.28 and the “self-splicing fitness (ln)” value (37 °C) is reported as -0.031 ± 0.22.

For GUCCAGCAAUAUUACGUCCA, the “self-splicing fitness (ln)” value (30 °C) was -1.12 ± 0.077 and the “self-splicing fitness (ln)” value (37 °C) was -0.579 ± 0.079.

For UGAGAGCAAUAUUACGGCAG, the “self-splicing fitness (ln)” value (37 °C) was -1.58 ± 0.31.

With CGCCAGCAAUAUUACGCCGU the “self-splicing fitness (ln)” value (30 °C) was -2.59 ± 0.15 and the “self-splicing fitness (ln)” value (37 °C) was -1.71 ± 0.17.

For UCGGAGCAAUAUUACGUUAU, the “self-splicing fitness (ln)” value (30 °C) was -3.36 ± 0.38 and the “self-splicing fitness (ln)” value (37 °C) was -2.11 ± 0.38.

With CCCAAGCAAUAUUACGCUGU the “self-splicing fitness (ln)” value (30 °C) was -3.8 ± 0.15 and the “self-splicing fitness (ln)” value (37 °C) was -2.95 ± 0.17.

With ACAGAGCAAUAUUACGCUGA the “self-splicing fitness (ln)” value (30 °C) was -3.27 ± 0.19 and the “self-splicing fitness (ln)” value (37 °C) was -1.47 ± 0.16.

With CCUCAGCAAUAUUACGAGGG the “self-splicing fitness (ln)” value (30 °C) was -4.16 ± 0.26 and the “self-splicing fitness (ln)” value (37 °C) was -2.73 ± 0.28.

With UUGAAGCAAUAUUACGGGAC the “self-splicing fitness (ln)” value (30 °C) was -2.18 ± 0.3 and the “self-splicing fitness (ln)” value (37 °C) was -2.34 ± 0.28.

For GUUAAGCAAUAUUACGAGCG, the “self-splicing fitness (ln)” value (30 °C) was -1.54 ± 0.11 and the “self-splicing fitness (ln)” value (37 °C) was -0.685 ± 0.13.

For CUCAAGCAAUAUUACGCCAU, the “self-splicing fitness (ln)” value (37 °C) was -1.99 ± 0.37.

With UCGAAGCAAUAUUACGCAGG the “self-splicing fitness (ln)” value (30 °C) was -3.31 ± 0.23 and the “self-splicing fitness (ln)” value (37 °C) was -1.8 ± 0.16.

In the case of CUUCAGCAAUAUUACGGCUG, the “self-splicing fitness (ln)” value (30 °C) is reported as -3.75 ± 0.34 and the “self-splicing fitness (ln)” value (37 °C) is reported as -2.65 ± 0.47.

For UGUUAGCAAUAUUACGACGC, the “self-splicing fitness (ln)” value (30 °C) was -1.59 ± 0.2 and the “self-splicing fitness (ln)” value (37 °C) was -1.47 ± 0.32.

With UUAUAGCAAUAUUACGCCCG the “self-splicing fitness (ln)” value (30 °C) was -1.45 ± 0.36.

For GCACAGCAAUAUUACGGUAG, the “self-splicing fitness (ln)” value (30 °C) was -3.61 ± 0.15 and the “self-splicing fitness (ln)” value (37 °C) was -1.98 ± 0.11.

With GUCCAGCAAUAUUACGAGCA the “self-splicing fitness (ln)” value (30 °C) was -0.945 ± 0.12 and the “self-splicing fitness (ln)” value (37 °C) was -1.08 ± 0.15.

In the case of CGUCAGCAAUAUUACGCUUU, the “self-splicing fitness (ln)” value (30 °C) is reported as -3.76 ± 0.27 and the “self-splicing fitness (ln)” value (37 °C) is reported as -1.66 ± 0.17.

For UGAUAGCAAUAUUACGUCGU, the “self-splicing fitness (ln)” value (30 °C) was -2.06 ± 0.34 and the “self-splicing fitness (ln)” value (37 °C) was -2.02 ± 0.35.

For UAGCAGCAAUAUUACGUGGC, the “self-splicing fitness (ln)” value (30 °C) was -4.18 ± 0.26 and the “self-splicing fitness (ln)” value (37 °C) was -2.12 ± 0.21.

For CGGAAGCAAUAUUACGUUUA, the “self-splicing fitness (ln)” value (30 °C) was -3.07 ± 0.24 and the “self-splicing fitness (ln)” value (37 °C) was -2.06 ± 0.17.

With ACCGAGCAAUAUUACGGCUG the “self-splicing fitness (ln)” value (30 °C) was -1.28 ± 0.073 and the “self-splicing fitness (ln)” value (37 °C) was -1.24 ± 0.1.

In the case of ACUUAGCAAUAUUACGAAGA, the “self-splicing fitness (ln)” value (30 °C) is reported as -1.69 ± 0.12 and the “self-splicing fitness (ln)” value (37 °C) is reported as -1.24 ± 0.14.

For CAAAAGCAAUAUUACGCCGG, the “self-splicing fitness (ln)” value (30 °C) was -0.401 ± 0.098 and the “self-splicing fitness (ln)” value (37 °C) was -0.104 ± 0.13.

With GUUGAGCAAUAUUACGUGUG the “self-splicing fitness (ln)” value (30 °C) was -3.65 ± 0.34 and the “self-splicing fitness (ln)” value (37 °C) was -3.15 ± 0.32.

With GUCCAGCAAUAUUACGGCGG the “self-splicing fitness (ln)” value (30 °C) was -4.63 ± 0.42 and the “self-splicing fitness (ln)” value (37 °C) was -1.4 ± 0.29.

For AAAUAGCAAUAUUACGAAUU, the “self-splicing fitness (ln)” value (30 °C) was -1.65 ± 0.1 and the “self-splicing fitness (ln)” value (37 °C) was -0.368 ± 0.12.

With CCGAAGCAAUAUUACGUGAG the “self-splicing fitness (ln)” value (30 °C) was -1 ± 0.065 and the “self-splicing fitness (ln)” value (37 °C) was -0.698 ± 0.084.

For UAGCAGCAAUAUUACGUUCC, the “self-splicing fitness (ln)” value (30 °C) was -3.78 ± 0.4 and the “self-splicing fitness (ln)” value (37 °C) was 0.00366 ± 0.21.

For UCAGAGCAAUAUUACGUCGU, the “self-splicing fitness (ln)” value (30 °C) was -2.89 ± 0.24 and the “self-splicing fitness (ln)” value (37 °C) was -0.54 ± 0.24.

For GAACAGCAAUAUUACGUCGA, the “self-splicing fitness (ln)” value (30 °C) was -0.66 ± 0.066 and the “self-splicing fitness (ln)” value (37 °C) was -0.117 ± 0.076.

In the case of AAUGAGCAAUAUUACGGUUU, the “self-splicing fitness (ln)” value (30 °C) is reported as -2.13 ± 0.097 and the “self-splicing fitness (ln)” value (37 °C) is reported as -0.543 ± 0.11.

In the case of AGGGAGCAAUAUUACGAAAU, the “self-splicing fitness (ln)” value (30 °C) is reported as -3.18 ± 0.35 and the “self-splicing fitness (ln)” value (37 °C) is reported as -1.22 ± 0.24.

For GCGGAGCAAUAUUACGACAU, the “self-splicing fitness (ln)” value (30 °C) was -1.38 ± 0.016 and the “self-splicing fitness (ln)” value (37 °C) was -0.573 ± 0.035.

For CGGCAGCAAUAUUACGCAAC, the “self-splicing fitness (ln)” value (37 °C) was -2.1 ± 0.26.

In the case of CACAAGCAAUAUUACGCAGG, the “self-splicing fitness (ln)” value (30 °C) is reported as -2.65 ± 0.15 and the “self-splicing fitness (ln)” value (37 °C) is reported as -1.01 ± 0.13.

For UAAAAGCAAUAUUACGGGGU, the “self-splicing fitness (ln)” value (30 °C) was -3.96 ± 0.17 and the “self-splicing fitness (ln)” value (37 °C) was -3.21 ± 0.2.

With CGUCAGCAAUAUUACGACCG the “self-splicing fitness (ln)” value (30 °C) was -0.855 ± 0.098 and the “self-splicing fitness (ln)” value (37 °C) was -0.475 ± 0.12.

With UACCAGCAAUAUUACGGCGA the “self-splicing fitness (ln)” value (30 °C) was -0.21 ± 0.13 and the “self-splicing fitness (ln)” value (37 °C) was 0.254 ± 0.19.
